The values below come from patent publication US20060281673A1, “Novel peptide inhibitor of hiv fusion that disrupts the internal trimeric coiled-coil of gp41” (priority 2003, published 2006).

In one assay the target is N36^Mut(e,g). As to the kind of experiment: cell-based or functional assay.
Assay [1] addresses pre-hairpin intermediate of gp41 (HIV-1 Env on effector cells) (HIV-1), P03377. As to the kind of experiment: cell-based or functional assay.

B1: N36^Mut(e,g) (peptide)
peptide: SGIDQEQNNLTRLIEAQIHELQLTQWKIKQLLARIL
modifications: not checked
In the assay with N36^Mut(e,g), B1 showed a α: factor relating the homotrimerization association constant of L to Kref^trimer, fitted to the fusion inhibition data at λMT=1.5×10^-4 M of 0.34 and a α: factor relating the homotrimerization association constant of L to Kref^trimer, fitted to the fusion inhibition data at λMT=1.5×10^-5 M of 1.07. In assay [1], this molecule had an IC50, inhibition of HIV Env-mediated cell fusion (vaccinia virus-based reporter gene assay) of 308 nM; a fold activity in inhibiting fusion relative to N36 of 50 fold; a β: factor relating the heterotrimerization association constant of M and L to Kref^trimer, fitted to the fusion inhibition data at λMT=1.5×10^-4 M of 5.76; a β: factor relating the heterotrimerization association constant of M and L to Kref^trimer, fitted to the fusion inhibition data at λMT=1.5×10^-5 M of 2.97.

B2: N36^Mut(a,d) (peptide)
peptide: SGIVQQLNNQLRAEEANQHLEQLSVWGSKQNQARRL
modifications: not checked
In assay [1], B2 showed an inhibition of HIV Env-mediated cell fusion (vaccinia virus-based reporter gene assay) of over 0.1 mM.
